Data on six molecules can be found in patent US20220135686A1 (SUNSHINE GUOJIAN PHARMACEUTICAL SHANGHAI, published 2022).

“And” between values parts separate entries of the source, which are not always exact repeats. Identical values can stand only once.

Assay [1] has as its target T1, PD-L1-ECD-hFc (human, UniProt Q9NZQ7 19-238).
T1 construct: extracellular domain; also called biotinylated PD-L1-ECD-hFc; not shown: Fc segment of human IgG1
The assay can be described thus: ELISA, plate coated with PD-L1-ECD-hFc 10 ng/well, OD450. The protocol: (§1) The plates were blocked with PBST containing 1% BSA. The antibodies to be tested were serially diluted, then transferred to the above plates coated with recombinant proteins, incubated at room temperature for half an hour and then the plates were washed; an appropriately diluted HRP-labeled goat anti-human antibody (Fc-Specific) (purchased from Sisgma) was added, incubated at room temperature for half an hour and then the plates were washed; chromogenic solution with TMB as a substrate was added at 100 μl/well, incubated at room temperature for 1˜5 min; 50 μl of stop solution (2M H₂SO₄) was added to stop the reaction. OD450 values were read with a microplate reader (SpectraMax 190). Graphing and data analysis were performed using GraphPad Prism6, and EC50 values were calculated.
(An ELISA detects its analyte on a solid surface through an enzyme-linked reagent.)

For assay [2], the target named is T2, PD-L1-His (human, UniProt Q9NZQ7 19-238).
T2 construct: extracellular domain; Expressed in HEK293F; also called recombinant protein PD-L1-His; not shown: polyhistidine tag
The assay can be described thus: SPR (Biacore 8K), antibody captured on Protein A/G chip, PD-L1-His injected. The protocol:
(§2) Herein, the affinity of the above antibodies to PD-1 or PD-L1 was determined by Biacore 8K (GE healthcare). On Biacore 8K, the chip coupled with Protein A/G was used to capture various antibodies, respectively, and then the recombinant protein PD1-His or PD-L1-His was injected to obtain the binding-dissociation curve, which was eluted with 6M guanidine hydrochloride regeneration buffer for next cycle. Data were analyzed using the Biacore 8K Evaluation Software.

The target of assay [3] is T2, PD-L1-His. The assay can be described thus: ELISA, coated PD-L1-His.
Assay [4] has as its target T1, PD-L1-ECD-hFc. The assay can be described thus: competition ELISA: blocks biotinylated PD-L1-ECD-hFc binding to coated PD1-ECD-hFc. As to the method:
Human PD-1-ECD-hFc was diluted to 2 μg/ml with sodium carbonate buffer (1.59 g Na₂CO₃ and 2.93 g NaHCO₃ dissolved in 1 L of pure water), and added into a 96-well ELISA plate with a multichannel pipette at 100 μl/well, incubated at room temperature for 4 h; washed once with PBST, blocked with PBST containing 1% BSA at 200 μl/well, incubated at room temperature for 2 h; the blocking solution was discarded, the plate was patted dry, and placed at 4° C. for later use. […] OD450 values were read with a microplate reader (SpectraMax 190). Graphing and data analysis were performed using GraphPad Prism6, and IC50 values were calculated.

Assay [5] deals with T3, PD1-ECD-hFc (human, UniProt Q15116 25-170).
T3 construct: extracellular domain; also called Human PD-1-ECD-hFc; human PD1-ECD-hFc; not shown: Fc segment of human IgG1
The assay can be described thus: ELISA, plate coated with PD1-ECD-hFc 10 ng/well, OD450. The protocol:
as §1

In assay [6] the target is T4, PD1-His (human, UniProt Q15116 25-170).
T4 construct: extracellular domain; Expressed in HEK293F; also called recombinant protein PD1-His; not shown: polyhistidine tag
The assay can be described thus: ELISA, plate coated with PD1-His 10 ng/well, OD450.

Assay [7] addresses T1, PD-L1-ECD-hFc. The assay can be described thus: ELISA, coated PD-L1-ECD-hFc. As to the method:
as §1

Assay [8] has as its target T4, PD1-His. The assay can be described thus: ELISA, coated PD1-His.
In assay [9] the target is T4, PD1-His. The assay can be described thus: SPR (Biacore 8K), antibody captured on Protein A/G chip, PD1-His injected. As to the method:
as §2
In general terms: Surface plasmon resonance follows binding to a sensor surface in real time, without labels.

Assay [10] concerns the target T3, PD1-ECD-hFc. The assay can be described thus: ELISA, coated PD1-ECD-hFc. As to the method: as §1

T3 sequence (Q15116 25-170 limits assumed): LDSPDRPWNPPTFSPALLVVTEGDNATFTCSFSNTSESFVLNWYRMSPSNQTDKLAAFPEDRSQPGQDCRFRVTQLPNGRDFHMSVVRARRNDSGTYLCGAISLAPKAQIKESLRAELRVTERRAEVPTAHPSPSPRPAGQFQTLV
T4 sequence (Q15116 25-170): as the sequence (Q15116 25-170 limits assumed) above
T2 sequence (Q9NZQ7 19-238): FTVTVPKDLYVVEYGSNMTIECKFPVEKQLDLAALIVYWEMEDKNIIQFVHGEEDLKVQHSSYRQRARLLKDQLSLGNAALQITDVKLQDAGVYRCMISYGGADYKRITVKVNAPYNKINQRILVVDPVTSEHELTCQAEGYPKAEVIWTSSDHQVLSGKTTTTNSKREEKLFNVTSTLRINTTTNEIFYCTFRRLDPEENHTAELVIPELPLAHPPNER
T1 sequence (Q9NZQ7 19-238 limits assumed): as the sequence (Q9NZQ7 19-238) above

B1: mAb1-25-Hu (609) (antibody, human IgG4 S228P, kappa, V domains shown)
VH: EVKLVESGGGLVQPGGSLRLSCAASGFAFSSYDMSWVRQAPGKRLEWVATISGGGRYTYYPDTVKGRFTISRDNAKNSHYLQMNSLRAEDTAVYFCASPYGGYFDVWGQGTLVTVSS
VL: EIVLTQSPATLSLSPGERATLSCRASQSISNFLHWYQQKPGQAPRLLIKYASQSISGIPARFSGSGSGTDFTLTISSLEPEDFAVYFCQQSNSWPHTFGQGTKVEIKR
notes: Humanized anti-human PD-1 monoclonal antibody, human IgG4 (S228P) / kappa
B1: the binding result in [1] was “no binding (tested: log10(nM) about 2.1 (about 130 nM))”.

B2: Anti-PDL1 (antibody, human IgG1, kappa, V domains shown)
VH: QVQLQQSGGGLVKPSQSLSLTCTVSGFSLTSYGVHWVRQPPGKGLEWIGLIWSGGGTDYNPSLKSRLTISRDTSKNQVSFKISSLTAADTAVYYCARQLGLRAMDYWGQGTSVTVSS
VL: EIVLTQSPDFLSVTPKEKVTITCRASQSIGTTIHWYQQKPDQSPKLLIKYASQSFSGVPSRFSGSGSGTDFTLTINSVEAEDAATYYCQQSNSWPLTFGAGTKLEIKR
notes: Humanized from murine M8; human IgG1 / kappa; also called humanized anti-human PD-L1 antibody; Anti-PDL1-HC+Anti-PDL1-LC
As usually defined, the Kd is the free concentration of one partner at which half of the binding sites on the other are occupied at equilibrium, for simple one-to-one binding. A high value points to lower affinity. As a reminder, the koff is a measure of how fast the partners let go of each other. Read a low koff as a long-lived complex. A word on the kon: it is a measure of how fast the partners come together. Low values mean slow association, high ones fast association. The EC50 is the concentration that produces a half-maximal response. Read a high EC50 as weaker potency. What is called IC50 is the concentration that gives 50% inhibition. Lower therefore signals inhibition by little substance. For the molecule B2, in assay [2], the Kd was found to be 843 pM, the off-rate (koff) is 0.00138 s⁻¹ and the kon was found to be 1.63e+06 M⁻¹ s⁻¹. The EC50 in assay [3] is 120 pM and 102 pM. In assay [4], the IC50 is 1370 pM. Further, the binding result in assay [5] is “no binding (tested: log10(nM) about 2.1 (about 130 nM))”. Further, the binding result in assay [6] is given as “no binding (tested: log10(nM) about 2.4 (about 250 nM))”. Besides, the EC50 in [7] turned out to be 125 pM.

B3: Anti-PDL1-HC+609-LC (antibody, human IgG1, kappa, V domains shown)
VH: B2 VH
VL: B1 VL
notes: also called hybrid antibody
Turning to B3, the binding result in assay [5] is recorded as “no binding (tested: log10(nM) about 2.1 (about 130 nM))”.

B4: 609-HC+Anti-PDL1-LC (antibody, human IgG4 S228P, kappa, V domains shown)
VH: B1 VH
VL: B2 VL
notes: also called hybrid antibody
In assay [8], B4 yielded an EC50 of 382 pM. In [9], this molecule had a Kd of 34900 pM, a koff of 0.00439 s⁻¹ and a kon of 126000 M⁻¹ s⁻¹. In assay [10], this molecule showed an EC50 of 244 pM.

B5: PDL1-Fab-609-IgG4 (bispecific antibody)
heavy: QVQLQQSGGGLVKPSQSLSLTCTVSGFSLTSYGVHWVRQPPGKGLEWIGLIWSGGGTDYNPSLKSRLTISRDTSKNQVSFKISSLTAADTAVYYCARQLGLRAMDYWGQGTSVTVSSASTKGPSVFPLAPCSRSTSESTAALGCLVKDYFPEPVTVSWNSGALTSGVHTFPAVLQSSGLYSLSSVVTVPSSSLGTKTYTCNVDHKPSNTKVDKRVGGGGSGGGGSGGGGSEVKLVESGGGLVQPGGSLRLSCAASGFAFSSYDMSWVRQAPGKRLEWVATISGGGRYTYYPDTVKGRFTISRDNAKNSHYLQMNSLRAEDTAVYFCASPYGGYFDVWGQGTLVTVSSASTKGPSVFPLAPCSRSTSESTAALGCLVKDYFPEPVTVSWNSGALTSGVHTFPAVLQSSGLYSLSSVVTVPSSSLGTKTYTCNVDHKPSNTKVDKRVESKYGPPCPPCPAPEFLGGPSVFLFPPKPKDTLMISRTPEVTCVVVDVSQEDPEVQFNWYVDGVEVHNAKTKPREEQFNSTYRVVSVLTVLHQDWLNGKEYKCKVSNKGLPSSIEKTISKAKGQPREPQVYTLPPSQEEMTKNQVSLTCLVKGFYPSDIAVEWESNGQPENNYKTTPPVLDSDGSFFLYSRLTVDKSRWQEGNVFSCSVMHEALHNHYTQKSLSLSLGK
light: EIVLTQSPDFLSVTPKEKVTITCRASQSIGTTIHWYQQKPDQSPKLLIKYASQSFSGVPSRFSGSGSGTDFTLTINSVEAEDAATYYCQQSNSWPLTFGAGTKLEIKRTVAAPSVFIFPPSDEQLKSGTASVVCLLNNFYPREAKVQWKVDNALQSGNSQESVTEQDSKDSTYSLSSTLTLSKADYEKHKVYACEVTHQGLSSPVTKSFNRGEC
notes: expressed with the common light chain Anti-PDL1-LC; also called tetravalent bispecific antibody against PD-1 and PD-L1
As to B5, the figures for the half-maximal effective concentration (EC50) in assay [3] and in assay [8] were 140 pM and 5310 pM, respectively.

B6: 609-Fab-PDL1-IgG4 (bispecific antibody)
heavy: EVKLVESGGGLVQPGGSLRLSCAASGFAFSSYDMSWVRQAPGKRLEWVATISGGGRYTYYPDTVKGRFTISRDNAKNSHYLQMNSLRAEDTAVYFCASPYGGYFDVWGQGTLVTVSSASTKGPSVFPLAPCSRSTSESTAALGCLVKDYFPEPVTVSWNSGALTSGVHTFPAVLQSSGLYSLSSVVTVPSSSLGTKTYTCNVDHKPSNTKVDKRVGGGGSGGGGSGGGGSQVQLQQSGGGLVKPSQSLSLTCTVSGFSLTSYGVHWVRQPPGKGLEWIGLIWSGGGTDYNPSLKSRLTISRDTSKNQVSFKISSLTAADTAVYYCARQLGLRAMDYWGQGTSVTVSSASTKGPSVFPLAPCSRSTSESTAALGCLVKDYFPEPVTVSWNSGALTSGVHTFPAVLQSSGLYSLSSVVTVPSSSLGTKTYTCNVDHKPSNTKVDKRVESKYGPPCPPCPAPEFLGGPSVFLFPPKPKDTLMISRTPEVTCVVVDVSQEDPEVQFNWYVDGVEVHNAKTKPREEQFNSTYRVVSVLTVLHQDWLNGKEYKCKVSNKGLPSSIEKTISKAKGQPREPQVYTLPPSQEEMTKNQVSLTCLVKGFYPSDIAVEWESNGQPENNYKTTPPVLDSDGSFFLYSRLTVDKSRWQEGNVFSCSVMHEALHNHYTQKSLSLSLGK
light: B5 light
notes: as for B5
Regarding B6, in assay [2], the affinity, expressed as Kd, was 608 pM; the off-rate constant (koff) worked out at 0.00112 s⁻¹; the kon amounted to 1.85e+06 M⁻¹ s⁻¹. For the same molecule, the EC50 in assay [3] amounted to 135 pM. In assay [8], this molecule gave an EC50 of 421 pM. Besides, in assay [9], the Kd came to 25700 pM, the koff worked out at 0.00443 s⁻¹ and the kon was 173000 M⁻¹ s⁻¹.
